The values that follow come from the supplement of paper PMC11908140.

To fix the notation:
B1: library; numbered along this chain (parent)
chain: MRKPRAAVGSGHRKQAASQEGRQKHAKNNSQAKPSACDGLARQPEEVVLQASVSSYHLFRDVAEVTAFRGSLLSWYDQEKRDLPWRRRAEDEMDLDRRAYAVWVSEVMLQQTQVATVINYYTGWMQKWPTLQDLASASLEEVNQLWAGLGYYSRGRRLQEGARKVVEELGGHMPRTAETLQQLLPGVGRYTAGAIASIAFGQATGVVDGNVARVLCRVRAIGADPSSTLVSQQLWGLAQQLVDPARPGDFNQAAMELGATVCTPQRPLCSQCPVESLCRARQRVEQEQLLASGSLSGSPDVEECAPNTGQCHLCLPPSEPWDQTLGVVNFPRKASRKPPREESSATCVLEQPGALGAQILLVQRPNSGLLAGLWEFPSVTWEPSEQLQRKALLQELQRWAGPLPATHLRHLGEVVHTFSHIKLTYQVYGLALEGQTPVTTVPPGARWLTQEEFHTAAVSTAMKKVFRVYQGQQPGTCMGSKRSQVSSPCSRKKPRMGQQVLDNFFRSHISTDAHSLNSAAQ

In the data set the parent is B1. The data set is described as follows: 8OG:A repair function score (normalized; synonymous = 0, nonsense = -1) (normalized log-likelihood score); higher = more repair activity (WT-like). The settings on record: with 8OG:A DNA repair reporter (GFP) in HEK-293 MUTYH KO cells. The procedure, abridged: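 With 10 pg/ml doxycycline, MUTYH knockout HEK-293 cells carrying lentiviral MUTYH cDNA NNN codon-scan libraries were co-transfected with mCherry and an 8OG:A GFP repair reporter. Viable mCherry+ cells were sorted into GFP+ (repair) and GFP− bins at 72 h, three replicates per tile, and tile amplicons were sequenced. Per-tile Rosace fitness scores were then normalized into a repair function score anchored on synonymous and nonsense distributions. Medians were fixed at 0 for synonymous and -1 for nonsense, excluding variants under 300 counts per million at the start.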
Consider MRKPRAAVGSGHRKQAASQEGRQKHAKNNSQAKPSACDGLARQPEEVVLQASVSSYHLFRDVAEVTAFRGSLLSWYDQEKRDLPWRRRAEDEMDLDRRAYAVWVSEVMLQQTQVATVINYYTGWMQKWPTLQDLASASLEEVNQLWAGLGYYSRGRRLQEGARKVVEELGGHMPRTAETLQQLLPGVGRYTAGAIASIAFGQATGVVDGNVARVLCRVRAIGADPSSTLVSQQLWGLAQQLVDPARPGDFNQAAMELGATVCTPQRPLCSQCPVESLCRARQRVEQEQLLASGSLSGSPDVEECAPNSGQCHLCLPPSEPWDQTLGVVNFPRKASRKPPREESSATCVLEQPGALGAQILLVQRPNSGLLAGLWEFPSVTWEPSEQLQRKALLQELQRWAGPLPATHLRHLGEVVHTFSHIKLTYQVYGLALEGQTPVTTVPPGARWLTQEEFHTAAVSTAMKKVFRVYQGQQPGTCMGSKRSQVSSPCSRKKPRMGQQVLDNFFRSHISTDAHSLNSAAQ [T308S], for which the “8OG:A repair function score” value is -0.000367.
To MRKPRAAVGSGHRKQAASQEGRQKHAKNNSQAKPSACDGLARQPEEVVLQASVSSYHLFRDVAEVTAFRGSLLSWYDQEKRDLPWRRRAEDEMDLDRRAYAVWVSEVMLQQTQVATVINYYTGWMQKWPTLQDLASASLEEVNQLWAGLGYYSRGRRLQEGARKVVEELGGHMPRTAETLQQLLPGVGRYTAGAIASIAFGQATGVVDGNVARVLCRVRAIGADPSSTLVSQQLWGLAQQLVDPARPGDFNQAAMELGATVCTPQRPLCSQCPVESLCRARQRVEQEQLLASGSLSGSPDVEECAPNMGQCHLCLPPSEPWDQTLGVVNFPRKASRKPPREESSATCVLEQPGALGAQILLVQRPNSGLLAGLWEFPSVTWEPSEQLQRKALLQELQRWAGPLPATHLRHLGEVVHTFSHIKLTYQVYGLALEGQTPVTTVPPGARWLTQEEFHTAAVSTAMKKVFRVYQGQQPGTCMGSKRSQVSSPCSRKKPRMGQQVLDNFFRSHISTDAHSLNSAAQ [T308M] belongs -0.0648; to MRKPRAAVGSGHRKQAASQEGRQKHAKNNSQAKPSACDGLARQPEEVVLQASVSSYHLFRDVAEVTAFRGSLLSWYDQEKRDLPWRRRAEDEMDLDRRAYAVWVSEVMLQQTQVATVINYYTGWMQKWPTLQDLASASLEEVNQLWAGLGYYSRGRRLQEGARKVVEELGGHMPRTAETLQQLLPGVGRYTAGAIASIAFGQATGVVDGNVARVLCRVRAIGADPSSTLVSQQLWGLAQQLVDPARPGDFNQAAMELGATVCTPQRPLCSQCPVESLCRARQRVEQEQLLASGSLSGSPDVEECAPNNGQCHLCLPPSEPWDQTLGVVNFPRKASRKPPREESSATCVLEQPGALGAQILLVQRPNSGLLAGLWEFPSVTWEPSEQLQRKALLQELQRWAGPLPATHLRHLGEVVHTFSHIKLTYQVYGLALEGQTPVTTVPPGARWLTQEEFHTAAVSTAMKKVFRVYQGQQPGTCMGSKRSQVSSPCSRKKPRMGQQVLDNFFRSHISTDAHSLNSAAQ [T308N], 0.0456; to MRKPRAAVGSGHRKQAASQEGRQKHAKNNSQAKPSACDGLARQPEEVVLQASVSSYHLFRDVAEVTAFRGSLLSWYDQEKRDLPWRRRAEDEMDLDRRAYAVWVSEVMLQQTQVATVINYYTGWMQKWPTLQDLASASLEEVNQLWAGLGYYSRGRRLQEGARKVVEELGGHMPRTAETLQQLLPGVGRYTAGAIASIAFGQATGVVDGNVARVLCRVRAIGADPSSTLVSQQLWGLAQQLVDPARPGDFNQAAMELGATVCTPQRPLCSQCPVESLCRARQRVEQEQLLASGSLSGSPDVEECAPNTAQCHLCLPPSEPWDQTLGVVNFPRKASRKPPREESSATCVLEQPGALGAQILLVQRPNSGLLAGLWEFPSVTWEPSEQLQRKALLQELQRWAGPLPATHLRHLGEVVHTFSHIKLTYQVYGLALEGQTPVTTVPPGARWLTQEEFHTAAVSTAMKKVFRVYQGQQPGTCMGSKRSQVSSPCSRKKPRMGQQVLDNFFRSHISTDAHSLNSAAQ [G309A], -0.0354.
The result for MRKPRAAVGSGHRKQAASQEGRQKHAKNNSQAKPSACDGLARQPEEVVLQASVSSYHLFRDVAEVTAFRGSLLSWYDQEKRDLPWRRRAEDEMDLDRRAYAVWVSEVMLQQTQVATVINYYTGWMQKWPTLQDLASASLEEVNQLWAGLGYYSRGRRLQEGARKVVEELGGHMPRTAETLQQLLPGVGRYTAGAIASIAFGQATGVVDGNVARVLCRVRAIGADPSSTLVSQQLWGLAQQLVDPARPGDFNQAAMELGATVCTPQRPLCSQCPVESLCRARQRVEQEQLLASGSLSGSPDVEECAPNTDQCHLCLPPSEPWDQTLGVVNFPRKASRKPPREESSATCVLEQPGALGAQILLVQRPNSGLLAGLWEFPSVTWEPSEQLQRKALLQELQRWAGPLPATHLRHLGEVVHTFSHIKLTYQVYGLALEGQTPVTTVPPGARWLTQEEFHTAAVSTAMKKVFRVYQGQQPGTCMGSKRSQVSSPCSRKKPRMGQQVLDNFFRSHISTDAHSLNSAAQ [G309D] reads -0.000739; that for MRKPRAAVGSGHRKQAASQEGRQKHAKNNSQAKPSACDGLARQPEEVVLQASVSSYHLFRDVAEVTAFRGSLLSWYDQEKRDLPWRRRAEDEMDLDRRAYAVWVSEVMLQQTQVATVINYYTGWMQKWPTLQDLASASLEEVNQLWAGLGYYSRGRRLQEGARKVVEELGGHMPRTAETLQQLLPGVGRYTAGAIASIAFGQATGVVDGNVARVLCRVRAIGADPSSTLVSQQLWGLAQQLVDPARPGDFNQAAMELGATVCTPQRPLCSQCPVESLCRARQRVEQEQLLASGSLSGSPDVEECAPNTCQCHLCLPPSEPWDQTLGVVNFPRKASRKPPREESSATCVLEQPGALGAQILLVQRPNSGLLAGLWEFPSVTWEPSEQLQRKALLQELQRWAGPLPATHLRHLGEVVHTFSHIKLTYQVYGLALEGQTPVTTVPPGARWLTQEEFHTAAVSTAMKKVFRVYQGQQPGTCMGSKRSQVSSPCSRKKPRMGQQVLDNFFRSHISTDAHSLNSAAQ [G309C], -0.165.
